27 sequences from the supplement of paper PMC9170038 can be followed below.

This data set relates to MS2 coat protein. Description: apparent KD of MS2 coat protein; designed switch direction (-1 OFF switch, 1 ON switch): 1; higher = weaker reporter binding. Summed up:
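On Illumina chips, designed RNA switches with common flanks were made by stalled E. coli RNA polymerase. Titrations with SNAP-549-labelled MS2 coat protein, doubling from 0.7 or 1.5 nM to 3 µM, were done with no input, with 200 uM small-molecule ligand, or with an oligonucleotide input. Apparent KD is the median per design over clusters, from curve fits of normalised cluster fluorescence.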

Setting [1] is: input ligand: microRNA oligo, concentration not stated.
[2] abbreviates: Eterna round: R95, input ligand: FMN 200 uM.
Setting [3] is: Eterna round: R95, input ligand: microRNA oligo, concentration not stated.
[4] abbreviates: Eterna round: R95, input ligand: none.

For the sequence “GAAUAGUUGAGAGGAUAUGGAUUAUUGUAGGAUCCAGAAGGUUUUAACAUGAGGAUCACCCAUGUAGGACUAUAUAUGUGAAUA [Parity 97 - Jieux - Same State NG 1] (Eterna round: R96, puzzle: Same State NG 1)”, the “apparent KD of MS2 coat protein” value turned out to be 13.1 nM (input ligand: FMN 200 uM), 11.7 nM under setting [1] and 19.5 nM (input ligand: none).
In the case of “GACAAUCUAUCUGAGGAUAUCAUGAAGAAAACAUGAGGAUCACCCAUGUGCAGGAUAACUGCAAAUGAGAAGGCAGAUAGAUUGG [Mat - Same State 2 - Mod - D3] (puzzle: Same State 2)”, the “apparent KD of MS2 coat protein” value was 10.9 nM under setting [2], 16.8 nM under setting [3] and 20 nM under setting [4].
The like results for “GACCAACAUGAGGAUCACCCAUGUUUCUGAGGCACAGGAUAUCGACAGGCAAGACACCUGCGAGAAGGGUGACCUC [Same State 1 - Mod of Vinnie Diatater v.3] (puzzle: Same State 1)” were, in that order, 49.2 nM, 38.8 nM and 30.2 nM.
The like results for “GAGAAGAGGGACAAGGAUAUGUCAGGAGAGACAUGAGGAUCACCCAUGUAGAGGUUGGAGGAGAGACAGAAGGUGUCGAGAGCGA [JR_SS2_Sub014] (puzzle: Same State 2)” were, in that order, 123 nM, 143 nM and 361 nM.
The like results for “GAGAGAGGAAGCGAGGAUAUCGUGUUAGGUACAUGAGGAUCACCCAUGUUGUAGGUAGAGGUAGGCGAGAAGGCGCAGGAGAGGU [JR_SS2_Sub095] (puzzle: Same State 2)” were, in that order, 26.7 nM, 26.4 nM and 32.2 nM.
As to “GAGAGAGGGUGAGGAUAUUCAGUAAUAAUGAUAGAAGAAGGCACAGACAUGAGGAUCACCCAUGUGGGAAUAAUCCAGAGAGAG [Parity 3 - Jieux - Same State NG 1] (Eterna round: R96, puzzle: Same State NG 1)”, the “apparent KD of MS2 coat protein” value under setting [1] amounted to 158 nM.
In the case of “GAGAGAGGGUGAGGAUAUUUAGUGAUAAUGAUGGGAGAAGGCACAGACAUGAGGAUCACCCAUGUGGGAAUAAUCCAGAGAGAG [Parity 10 - Jieux - Same State NG 1] (Eterna round: R96, puzzle: Same State NG 1)”, the “apparent KD of MS2 coat protein” value is, setting by setting: (input ligand: FMN 200 uM) 145 nM; under setting [1], 92.7 nM; (input ligand: none) 232 nM.
Taken in the same sequence, the figures for “GAGCCAGUCCGAGGAUAUUCAUAUACAUGAGGAUCACCCAUGUAGGCUCAGAAAAGAGAGCCUUGGGAGAAGGCGGACUGGCUC [Xeonanisa<<4] (Eterna round: R96, puzzle: Same State NG 2)” were 8.38 nM, 27.3 nM and 50.8 nM.
For the sequence “GAGGCACAUGAGGAUCACCCAUGUGGGCGGAACAUAGGAUAUCGCCAACAAUAAGCCCGGUGAGAAGGAUGAUGCC [Lexereat] (puzzle: Same State 1)”, the “apparent KD of MS2 coat protein” value is, setting by setting: under setting [2], 46.2 nM; under setting [3], 17.6 nM; under setting [4], 36.4 nM.
Take “GAGGCACAUGAGGAUCACCCAUGUGGGUAGAACAUAGGAUAUCACCAACAAAUUACCCGGUGAGAAGGAUGAUGCC [Zalaarza] (puzzle: Same State 1)”: the “apparent KD of MS2 coat protein” value under setting [3] was 151 nM.
“GAGGGAUGAGCGUAGGAUAUAGGAGGAGUGACAUGAGGAUCACCCAUGUGGUAUGAGGGAGGAUUCUAGAAGGACGCGGUAGAAG [JR_SS2_Sub064] (puzzle: Same State 2)”: the “apparent KD of MS2 coat protein” value is 66.4 nM under setting [2], 172 nM under setting [3] and 235 nM under setting [4].
“GAGGGCGAAAGCAACAUGAGGAUCACCCAUGUCCUCGGAGGGCAGGAUAUCCGGCGGUAGCCGAAGGAGAAGGGUCGGUAAACC [AK SSNG3-V2-33] (Eterna round: R96, puzzle: Same State NG 3)”: the “apparent KD of MS2 coat protein” value reads like this: (input ligand: FMN 200 uM) 258 nM; under setting [1], 214 nM; (input ligand: none) 184 nM.
Take “GAGUAGUUGGGAGGAUAUGCAUUGUUAUUAAAUGCAGAAGGUUUUAACAUGAGGAUCACCCAUGUAGGACUAUUCCUGUGUAUC [Parity 70 - Jieux - Same State NG 1] (Eterna round: R96, puzzle: Same State NG 1)”: the “apparent KD of MS2 coat protein” value reads like this: (input ligand: FMN 200 uM) 17.3 nM; under setting [1], 13.7 nM; (input ligand: none) 17.1 nM.
Taken in the same sequence, the figures for “GAGUGGAGGAGAGGAUAUACAAUGAUAAUCACAGUAGAAGGUUCUAACAUGAGGAUCACCCAUGUAGGACUAUUCCUGAGAGUU [Parity 50 - Jieux - Same State NG 1] (Eterna round: R96, puzzle: Same State NG 1)” were 10.8 nM, 9.56 nM and 12.8 nM.
Turning to “GAGUGGUGGAGAGGAUAUACAUUGUUAUUCACUGUAGAAGGUUCUAACAUGAGGAUCACCCAUGUAGGACUAUUCCUGUGUUUU [Parity 57 - Jieux - Same State NG 1] (Eterna round: R96, puzzle: Same State NG 1)”, the “apparent KD of MS2 coat protein” value under setting [1] stood at 9.37 nM.
Turning to “GAUUCACAUGAGGAUCACCCAUGUCGUUUAAUGGGAGGAUAUACGUGGACCGUAGUCCGCGUAGAAGGCCUAAUUG [Mat - Same State 1 - Mod of JL - D24] (puzzle: Same State 1)”, the “apparent KD of MS2 coat protein” value under setting [3] came out at 74.4 nM.
On to “GCAGAACAUGAGGAUCACCCAUGUCUCUAAUAUCGAGGAUAUGGGCAGGGUAUAUCCCAACCAGAAGGCGAACUGC [SS1 Teenbexe 14] (puzzle: Same State 1)”, for which the “apparent KD of MS2 coat protein” value reads like this: under setting [2], 51.7 nM; under setting [3], 140 nM; under setting [4], 205 nM.
As for “GCAGGAAGCAAAGGAUAUGGAAGAUUACUCAGUCCAGAAGGUUGCUUCUUGGAACAUGAGGAUCACCCAUGUCACCGUUACGGC [Eternabot solution 30] (Eterna round: R96, puzzle: Same State NG 1)”, the “apparent KD of MS2 coat protein” value (input ligand: FMN 200 uM) stood at 15.8 nM, the “apparent KD of MS2 coat protein” value under setting [1] turned out to be 19 nM and the “apparent KD of MS2 coat protein” value (input ligand: none) came out at 14.5 nM.
The like results for “GCCAUCGAGUGAGGAUAUGGCACCGUUUCGGUGCCAGAAGGCAUGUCAAUUGACAUGAGGAUCACCCAUGUAUUAUCGAUGGCA [JL Fiskers NG1ss - 33 mod 4] (Eterna round: R96, puzzle: Same State NG 1)” were, in that order, 75.4 nM, 556 nM and 835 nM.
The like results for “GCCAUCGCAUGAGGAUAUGGCACCGAAACGGUGCCAGAAGGCAUGUCGAAAGACAUGAGGAUCACCCAUGUAGUAUAGAUGGCA [Mat - Same State NG 1 - JL mod - D93] (Eterna round: R96, puzzle: Same State NG 1)” were, in that order, 222 nM, 228 nM and 900 nM.
For “GCCAUCGCAUGAGGAUAUGGCACCGAAACGGUGCCAGAAGGCAUGUCGAAUGACAUGAGGAUCACCCAUGUAGUAUAGAUGGCA [Mat - Same State NG 1 - JL mod - D92] (Eterna round: R96, puzzle: Same State NG 1)”, the “apparent KD of MS2 coat protein” value runs as follows: (input ligand: FMN 200 uM) 52.9 nM; under setting [1], 571 nM; (input ligand: none) 628 nM.
The like results for “GCGAAGAGGUAAGGAUAUGCAUGGCGGAGACAUGAGGAUCACCCAUGUUGGAGACGAAAUCUAGGGUAGAAGGUACCAGGACGC [AK SSNG2-V2-13] (Eterna round: R96, puzzle: Same State NG 2)” were, in that order, 41.5 nM, 64.6 nM and 72.9 nM.
The like results for “GCGAGCGUACUUGCAACAUGAGGAUCACCCAUGUUAACUGGACAGGAUAUGGUACCGUUUCGGUACCAGAAGGGUUCAUCAUGU [JL SSNG3 3.67] (Eterna round: R96, puzzle: Same State NG 3)” were, in that order, 74.1 nM, 147 nM and 183 nM.
The like results for “GCGAGCGUACUUGCUACAUGAGGAUCACCCAUGUUUAUUGGACAGGAUAUGGUACCGUUUCGGUACCAGAAGGGUUCAUCAUGU [JL SSNG3 3.70] (Eterna round: R96, puzzle: Same State NG 3)” were, in that order, 294 nM, 471 nM and 547 nM.
Consider “GCGAGCGUACUUGCUACAUGAGGAUCACCCAUGUUUUAUGGACAGGAUAUGGUACCGUUUCGGUACCAGAAGGGUUCACAUGUG [JL SSNG3 3.82] (Eterna round: R96, puzzle: Same State NG 3)”, for which the “apparent KD of MS2 coat protein” value (input ligand: FMN 200 uM) is 133 nM, the “apparent KD of MS2 coat protein” value under setting [1] stood at 186 nM and the “apparent KD of MS2 coat protein” value (input ligand: none) stood at 254 nM.
Taken in the same sequence, the figures for “GCGGACCUGACAUGAGGAUCACCCAUGUUGCGGAGACGCAAUGAGGAUAUCGAUGGGUUUCCCGUCGAGAAGGCAUAAAUCCGC [JL SSNG3 3.93 mod 3] (Eterna round: R96, puzzle: Same State NG 3)” were 15.1 nM, 16 nM and 25.2 nM.
Taken in the same sequence, the figures for “GCGGAGAGGUAAGGAUAUCCAUGGAAAAAACAUGAGGAUCACCCAUGUAGGAAAAAAACUAGGAGGGAGAAGGUACCGGGACGC [AK SSNG2-V2-20] (Eterna round: R96, puzzle: Same State NG 2)” were 21.7 nM, 23.4 nM and 29.8 nM.
